Results on two molecules are retold here after patent US20120053225A1 (H LEE MOFFITT CANCER CENTER AND RESEARCH INSTITUTE, published 2012).

For test [1], the target named is T1, endogenous Ack1 of mouse embryo fibroblasts (mouse, UniProt O54967 1-1055, limits assumed).
T1 construct: Endogenous protein immunoprecipitated from MEF lysates with anti-Ack1 antibodies; also called TNK2
The test is described as follows: co-IP with Ack1 antibodies from EGF-treated MEF lysates, immunoblot with pan-AKT antibodies. (In general: In western blotting, separated proteins are transferred to a membrane and probed.)
Method: Membrane and cytosolic fractionation was performed using membrane fractionation kit (BioVision, Inc, CA). The nuclear/cytoplasmic fractionation was performed using protocol from Abcam (Abcam, Inc., Cambridge, Mass.). For immunoprecipitations, cells were lysed in receptor lysis buffer (RLB) containing 25 mmol/L Tris (pH 7.5), 500 mmol/L NaCl, 1% Triton X-100, 10% glycerol, phosphatase inhibitors (10 mmol/L NaF, 1 mmol/L Na₂VO₄), and protease inhibitor mix (Hoffmann-La Roche Inc., Switzerland). […] The kinase assay was performed using kit from Calbiochem.

For test [2], the target named is T2, HA-tagged AKT Y176F mutant (UniProt P31749 1-480).
T2 construct: also called Y176F mutant of AKT; HA-Y176F; not shown: HA tag
The test is described as follows: pull-down of purified proteins on GST-Ack1 glutathione beads, immunoblot.

T1 sequence (O54967 whole entry): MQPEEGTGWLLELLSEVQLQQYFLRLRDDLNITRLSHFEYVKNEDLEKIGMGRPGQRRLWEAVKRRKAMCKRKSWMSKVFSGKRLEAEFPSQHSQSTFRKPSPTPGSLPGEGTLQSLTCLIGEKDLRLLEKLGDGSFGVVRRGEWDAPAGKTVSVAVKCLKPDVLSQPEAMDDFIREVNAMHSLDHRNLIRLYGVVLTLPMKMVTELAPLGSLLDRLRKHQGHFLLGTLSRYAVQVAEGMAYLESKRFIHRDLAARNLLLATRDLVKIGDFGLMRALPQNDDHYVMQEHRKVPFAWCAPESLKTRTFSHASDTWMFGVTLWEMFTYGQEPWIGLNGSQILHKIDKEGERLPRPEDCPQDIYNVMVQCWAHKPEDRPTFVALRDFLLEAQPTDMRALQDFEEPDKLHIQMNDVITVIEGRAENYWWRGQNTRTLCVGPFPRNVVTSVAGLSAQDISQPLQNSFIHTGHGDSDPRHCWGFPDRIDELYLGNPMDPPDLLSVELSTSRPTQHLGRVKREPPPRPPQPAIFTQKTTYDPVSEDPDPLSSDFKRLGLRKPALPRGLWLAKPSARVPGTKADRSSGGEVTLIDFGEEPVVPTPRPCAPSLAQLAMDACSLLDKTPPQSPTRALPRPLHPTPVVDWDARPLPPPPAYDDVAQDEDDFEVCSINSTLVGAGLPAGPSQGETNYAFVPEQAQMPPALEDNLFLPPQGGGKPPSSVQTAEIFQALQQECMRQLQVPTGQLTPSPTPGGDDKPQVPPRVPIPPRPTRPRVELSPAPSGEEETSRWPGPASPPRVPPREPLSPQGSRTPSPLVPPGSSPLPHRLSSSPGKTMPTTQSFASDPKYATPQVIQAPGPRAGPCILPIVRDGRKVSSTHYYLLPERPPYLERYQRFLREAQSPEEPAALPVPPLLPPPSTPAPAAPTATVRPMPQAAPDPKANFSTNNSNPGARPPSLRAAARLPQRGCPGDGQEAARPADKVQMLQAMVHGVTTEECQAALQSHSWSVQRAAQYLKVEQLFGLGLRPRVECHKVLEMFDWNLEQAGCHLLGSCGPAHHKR

B1: endogenous Akt1 of mouse embryo fibroblasts (enzyme, UniProt P31750 1-480, looked up)
chain: MNDVAIVKEGWLHKRGEYIKTWRPRYFLLKNDGTFIGYKERPQDVDQRESPLNNFSVAQCQLMKTERPRPNTFIIRCLQWTTVIERTFHVETPEEREEWATAIQTVADGLKRQEEETMDFRSGSPSDNSGAEEMEVSLAKPKHRVTMNEFEYLKLLGKGTFGKVILVKEKATGRYYAMKILKKEVIVAKDEVAHTLTENRVLQNSRHPFLTALKYSFQTHDRLCFVMEYANGGELFFHLSRERVFSEDRARFYGAEIVSALDYLHSEKNVVYRDLKLENLMLDKDGHIKITDFGLCKEGIKDGATMKTFCGTPEYLAPEVLEDNDYGRAVDWWGLGVVMYEMMCGRLPFYNQDHEKLFELILMEEIRFPRTLGPEAKSLLSGLLKKDPTQRLGGGSEDAKEIMQHRFFANIVWQDVYEKKLSPPFKPQVTSETDTRYFDEEFTAQMITITPPDQDDSMECVDSERRPHFPQFSYSASGTA
notes: Endogenous protein in MEF lysates
Regarding B1, in test [1], the binding result is “binds”.

B2: GST-Ack1 (kinase, SH3 and CRIB domain), expressed in E. coli (enzyme, UniProt Q07912 110-476, looked up)
chain: GEGPLQSLTCLIGEKDLRLLEKLGDGSFGVVRRGEWDAPSGKTVSVAVKCLKPDVLSQPEAMDDFIREVNAMHSLDHRNLIRLYGVVLTPPMKMVTELAPLGSLLDRLRKHQGHFLLGTLSRYAVQVAEGMGYLESKRFIHRDLAARNLLLATRDLVKIGDFGLMRALPQNDDHYVMQEHRKVPFAWCAPESLKTRTFSHASDTWMFGVTLWEMFTYGQEPWIGLNGSQILHKIDKEGERLPRPEDCPQDIYNVMVQCWAHKPEDRPTFVALRDFLLEAQPTDMRALQDFEEPDKLHIQMNDVITVIEGRAENYWWRGQNTRTLCVGPFPRNVVTSVAGLSAQDISQPLQNSFIHTGHGDSDPRHCW
notes: domain: kinase, SH3 and CRIB domain; also called GST-tagged Ack1; not shown: GST tag
As to B2, the binding result in test [2] was “no binding”.
